Data reported in the supplement of paper PMC10724198.
± gives the standard deviation of the averaged measurements.

Test system: Saccharomyces cerevisiae
Test: protein stability index of tFT-peptide fusion (C-terminal peptide) (PSI (0-1 scale)); higher = more stable (slower turnover)
Settings: genetic background: wild type; temperature: 30 C
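Further: PSI is a weighted mean of sequencing reads over stability bins, variants kept only with over 10 reads, mCherry proximal and sfGFP distal, peptide attached via GGGS linker.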

Sequence	protein stability index
PPLPFARAPHCP	0.732 ± 0.059
PPLPHQPSHPIS	0.672 ± 0.053
PPLPLPPPHPPP	0.503 ± 0.047
PPLPPLPLPNPP	0.676 ± 0.064
PPLPPLPSPLPL	0.674 ± 0.014
PPLPPLRPIRSP	0.702 ± 0.035
PPLPPPLLPSSS	0.711 ± 0.12
PPLPPPLSLPPP	0.657 ± 0.06
PPLPPPPPPFPP	0.5534 ± 0.0012
PPLPPPSVPPPC	0.716 ± 0.012
PPLPPSLPGSSL	0.642 ± 0.053
PPLPPSPRLLPP	0.635 ± 0.056
PPLPRPSLPPLP	0.676 ± 0.054
PPLPSFILSPRA	0.705 ± 0.027
PPLPSGLHPTLT	0.6932 ± 0.0052
PPLPSTAPPSPL	0.735 ± 0.0096
PPLPTPPPPPDP	0.662 ± 0.052
PPLRFFPPVSSH	0.667 ± 0.014
PPLRPPPLHPPR	0.705 ± 0.036
PPLRPPPPPPPP	0.668 ± 0.072
PPLRPRCSPAPR	0.706 ± 0.01
PPLRQLTIPLTH	0.723 ± 0.0088
PPLSPPPLPAAP	0.724 ± 0.03
PPLSPPPSASSS	0.738 ± 0.065
PPLSSPPSLSPP	0.703 ± 0.049
PPLTSSPPFSPP	0.728 ± 0.09

Sequence	protein stability index
PPLYPPPRDLPP	0.5453 ± 0.0038
PPNPLHPPPSRP	0.653 ± 0.044
PPNPPPNPPSRY	0.738 ± 0.047
PPPALVPRPPPR	0.679 ± 0.0084
PPPAPPCFAPFP	0.673 ± 0.019
PPPAPPPLPTSP	0.771 ± 0.095
PPPAPPPPHSLV	0.717 ± 0.057
PPPDPPLHHNLP	0.693 ± 0.036
PPPFPPPSFASR	0.696 ± 0.057
PPPFPYRTALLP	0.708 ± 0.016
PPPGAPAPPPSS	0.692 ± 0.12
PPPGCRPSPPLP	0.683 ± 0.069
PPPGLPPPLPPS	0.767 ± 0.015
PPPGRRRLRGPT	0.705 ± 0.04
PPPHPPPPASPP	0.653 ± 0.034
PPPHPSPSRRSS	0.681 ± 0.029
PPPHVPPPPSSL	0.711 ± 0.023
PPPIYTPPPPPL	0.697 ± 0.053
PPPKRTPTPQCP	0.702 ± 0.078
PPPLAPPTSLRF	0.715 ± 0.075
PPPLFPPSSLLP	0.706 ± 0.033
PPPLLSAPPHCE	0.684 ± 0.052
PPPLPLLPSSPL	0.685 ± 0.013
PPPLPLPSPPPS	0.664 ± 0.08
PPPLPPAPPSPP	0.703 ± 0.19
PPPLPPLPPPTL	0.698 ± 0.045

Sequence	protein stability index
PPPLPPPLILTP	0.643 ± 0.054
PPPLPPPPAPPY	0.734 ± 0.018
PPPLPPPPASPP	0.685 ± 0.01
PPPLPPPTPLSP	0.5736 ± 0.0043
PPPLPPQTLTFC	0.729 ± 0.075
PPPLPSAPPTGT	0.706 ± 0.026
PPPLPSPPPRLP	0.693 ± 0.014
PPPLRFLSFPPS	0.661 ± 0.057
PPPLRPPPPPLP	0.645 ± 0.021
PPPLSCPSRPSL	0.526 ± 0.12
PPPLSFPSVYLT	0.75 ± 0.12
PPPLSPSFIPPP	0.698 ± 0.042
PPPLTPPTCLPP	0.644 ± 0.013
PPPMSVAVFPFG	0.678 ± 0.03
PPPNSPPRPPLS	0.7035 ± 0.0046
PPPPALIHSRPP	0.7406 ± 0.0045
PPPPARSPLTPL	0.725 ± 0.15
PPPPDLPYPLPL	0.754 ± 0.025
PPPPFLPVLLFP	0.696 ± 0.08
PPPPFPPPPPHS	0.719 ± 0.039
PPPPGPPPPSSL	0.6914 ± 0.006
PPPPLCPPPLSF	0.638 ± 0.016
PPPPLPAPLSPA	0.651 ± 0.021
PPPPLRPHHLTS	0.696 ± 0.021
PPPPLRSPPRSF	0.713 ± 0.02
PPPPLSPPPAPA	0.682 ± 0.048

Sequence	protein stability index
PPPPPAPLLLLP	0.78 ± 0.1
PPPPPAPPPVSI	0.659 ± 0.071
PPPPPASTPASS	0.6808 ± 0.0013
PPPPPHALSPPP	0.664 ± 0.011
PPPPPHTSPSPT	0.744 ± 0.042
PPPPPLGPLPAL	0.688 ± 0.012
PPPPPLLPPPPA	0.721 ± 0.02
PPPPPLLPPSLR	0.671 ± 0.073
PPPPPLPALPHL	0.627 ± 0.023
PPPPPLPHPVPP	0.6206 ± 0.005
PPPPPLPPPPSP	0.656 ± 0.052
PPPPPLPPPTPP	0.568 ± 0.024
PPPPPLPRALST	0.72 ± 0.044
PPPPPLQRFPPF	0.644 ± 0.046
PPPPPLSLPPPA	0.693 ± 0.024
PPPPPLSPPPRP	0.68631 ± 0.00031
PPPPPLSSPPSP	0.652 ± 0.049
PPPPPPAASSSP	0.692 ± 0.047
PPPPPPFLPRLP	0.721 ± 0.14
PPPPPPFPSSPP	0.698 ± 0.013
PPPPPPLSPPSP	0.659 ± 0.012
PPPPPPPPAPPS	0.68 ± 0.035
PPPPPPPPPCHL	0.644 ± 0.078
